From US20110287936A1, “GENE SWITCH COMPOSITIONS AND METHODS OF USE” (priority 2010, published 2011)
Positions count from the first letter of the chain named.

B1: L7-3E03-D1: ethametsulfuron repressor (EsR), SEQ ID NO:411 (protein)
chain: MARLDKSKVINSALELLNEVGIEGLTTRKLAQKLGVEQPTLYWHVKNKRALLDAMAIEMLDRHATHYCPLEGESWQDFLRNNAKSMRCALLSHRDGAKVCLGTGFTEQQYETAENSLAFLCQQGFSLEHAMYAMQAAGIYTLGCVLLDQELQVAKEERETPTTDSMPPLVRQALELKDHQGAEPAFLFGLELIICGLEKQLKCESGS
modifications: Sulfonylurea responsive repressor L7-3E3-D1
B2: L7-1G06-B2: ethametsulfuron repressor (EsR), SEQ ID NO:410 (protein)
chain: B1 chain with L117M, H129N, M131L, A137V
modifications: Sulfonylurea responsive repressor L7-1G6-B2
B3: L7-1F08-A11: ethametsulfuron repressor protein, SEQ ID NO:409 (protein)
chain: B1 chain with H129N, M131L, A137V
modifications: Sulfonylurea responsive repressor L7-1F8-A11
B4: L7-1C03-A5: ethametsulfuron repressor (EsR), SEQ ID NO:408 (protein)
chain: B1 chain with Y67V, S85I, M131L, Y140F, K177N
modifications: Sulfonylurea responsive repressor L7-1C3-A5
B5: MMV:tetOp: Mirabilis mosaic virus promoter with three tet operators, SEQ ID NO:857 (nucleic acid)
DNA: TTCGTCCACAGACATCAACATCTTATCGTCCTTTGAAGATAAGATAATAATGTTGAAGATAAGAGTGGGAGCCACCACTAAAACATTGCTTTGTCAAAAGCTAAAAAAGATGATGCCCGACAGCCACTTGTGTGAAGCATGAGAAGCCGGTCCCTCCACTAAGAAAATTAGTGAAGCATCTTCCAGTGGTCCCTCCACTCACAGCTCAATCAGTGAGCAACAGGACGAAGGAAATGACGTAAGCCATGACGTCTAATCCCACACTCTATCAGTGATAGAGTTTATATAAGACTCTATCAGTGATAGAGTGAACTCTATCAGTGATAGAGTGAGATCAATCGAAATCAAAATCGGAATCGAAATCAAAATCGGAATCGAAATCTCTCATCTAAGAGCTCAAAAAAAAAAAAAACC
modifications: MMV promoter engineered with tet operators
B6: 35S:tetOp: 35SCaMV promoter with tet operators, SEQ ID NO:862, control (nucleic acid)
DNA: GAAAATCTTCGTCAACATGGTGGAGCACGACACGCTTGTCTACTCCAAAAATATCAAAGATACAGTCTCAGAAGACCAAAGGGCAATTGAGACTTTTCAACAAAGGGTAATATCCGGAAACCTCCTCGGATTCCATTGCCCAGCTATCTGTCACTTTATTGTGAAGATAGTGGAAAAGGAAGGTGGCTCCTACAAATGCCATCATTGCGATAAAGGAAAGGCCATCGTTGAAGATGCCTCTGCCGACAGTGGTCCCAAAGATGGACCCCCACCCACGAGGAGCATCGTGGAAAAAGAAGACGTTCCAACCACGTCTTCAAAGCAAGTGGATTGATGTGATATCTCCACTGACGTAAGGGATGACGCACAATCCCACTAGACTCTATCAGTGATAGAGTGTATATAAGACTCTATCAGTGATAGAGTGAACTCTATCAGTGATAGAGTTGTACTTATTTTTACAACAATTACCAACAACAACAAACAACAAACAACATTACAATTACTATTTACAATTACAGTCGACGGATCAAGTGCAAAGGTCCGCCTTGTTTCTCCTCTGTCTCTTGATCTGACTAATCTTGGTTTATGATTCGTTGAGTAATTTTGGGGAAAGCTTCGTCCACAGTTTTTTTTTCGATGAACAGTGCCGCAGTGGCGCTGATCTTGTATGCTATCCTGCAATCGTGGTGAACTTATTTCTTTTATATCCTTCACTCCCATGAAAAGGCTAGTAATCTTTCTCGATGTAACATCGTCCAGCACTGCTATTACCGTGTGGTCCATCCGACAGTCTGGCTGAACACATCATACGATATTGAGCAAAGATCGATCTATCTTCCCTGTTCTTTAATGAAAGACGTCATTTTCATCAGTATGATCTAAGAATGTTGCAACTTGCAAGGAGGCGTTTCTTTCTTTGAATTTAACTAACTCGTTGAGTGGCCCTGTTTCTCGGACGTAAGGCCTTTGCTGCTCCACACATGTCCATTCGAATTTTACCGTGTTTAGCAAGGGCGAAAAGTTTGCATCTTGATGATTTAGCTTGACTATGCGATTGCTTTCCTGGACCCGTGCAGCTGCGGACGGATCC
modifications: 35SCaMV promoter engineered with tet operators
B7: dMMV:tetOp: double enhancer MMV promoter with three tet operators, SEQ ID NO:858 (nucleic acid)
DNA: AAACCAATTCGTCAACTTCGTCCACAGACATCAACATCTTATCGTCCTTTGAAGATAAGATAATAATGTTGAAGATAAGAGTGGGAGCCCCCACTAAAACATTGCTTTGTCAAAAGCTAAAAAAGATGATGCCCGACAGCCACTTGTGTGAAGCATGAGAAGCCGGTCCCTCCACTAAGAAAATTAGTGAAGCATCTTCCAGTGGTCCCTCCACTCACAGCTCAATCAGTGAGCAACAGGACGAAGGAAATGACGTAAGCCATGACGTCTAATCCCAACTTCGTCCACAGACATCAACATCTTATCGTCCTTTGAAGATAAGATAATAATGTTGAAGATAAGAGTGGGAGCCACCACTAAAACATTGCTTTGTCAAAAGCTAAAAAAGATGATGCCCGACAGCCACTTGTGTGAAGCATGAGAAGCCGGTCCCTCCACTAAGAAAATTAGTGAAGCATCTTCCAGTGGTCCCTCCACTCACAGCTCAATCAGTGAGCAACAGGACGAAGGAAATGACGTAAGCCATGACGTCTAATCCCACACTCTATCAGTGATAGAGTTTATATAAGACTCTATCAGTGATAGAGTGAACTCTATCAGTGATAGAGTGAGATCAATCGAAATCAAAATCGGAATCGAAATCAAAATCGGAATCGAAATCTCTCATCTAAGAGCTCAAAAAAAAAAAAAACC
modifications: dMMV promoter engineered with tet operators

Columns and labels:
[1] = test system: operator; experiment: Biacore SPR operator binding characterization of repressors
Text: Select SU repressors were further characterized for operator and ligand binding, affinity and dissociation kinetics using Biacore™ SPR technology (Biacore, GE Healthcare, USA). The technology is based on surface plasmon resonance (SPR), an optical phenomenon that enables detection of unlabeled interactants in real time. The SPR-based biosensors can be used in determination of active concentration, screening and characterization in terms of both affinity and kinetics.
The kinetics of an interaction, i.e., the rates of complex formation (ka) and dissociation (kd), can be determined from the information in a sensorgram. If binding occurs as sample passes over a prepared sensor surface, the response in the sensorgram increases. If equilibrium is reached, a constant signal is seen. Replacing the sample with buffer causes the bound molecules to dissociate and the response decreases. Biacore evaluation software generates the values of ka and kd by fitting the data to interaction models.
The affinity of an interaction is determined from the level of binding at equilibrium (seen as a constant signal) as a function of sample concentration. Affinity can also be determined from kinetic measurements. For a simple 1:1 interaction, the equilibrium constant KD is the ratio of the kinetic rate constants, kd/ka.
A. Operator Binding Characterization of Repressors

[2] = test system: 35S::tetO-Renilla Luciferase reporter; experiment: Nicotiana benthamiana leaf infiltration assay, repression and derepression; assay type: in vivo; conditions: inducer concentration as low as 0.02 ppm Es
[3] = test system: RLuc reporter; experiment: Agrobacterium transient luciferase assay of promoters with and without tet operators; assay type: in vivo, Nicotiana benthamiana; conditions: relative light units
Protocol: The activity of unmodified and designed MMV, dMMV, and EF1A2 promoters were evaluated using the characterized 35SCaMV (SEQ ID NO:861) and 35SCaMV::tetOP (SEQ ID NO:862) promoters as controls. Promoter activity was analyzed via Agrobacterium-mediated transient expression analysis in Nicotiana benthamiana leaves. N. benthamiana leaves were infected with luciferase reporter constructs controlled by either the modified or unmodified promoters. Test constructs were identical except for the promoter sequence (Pro) being tested. Test constructs comprised the following operably linked components: • RB-Pro-RLuc-UBQ3-EF1A-NptII-EF1A3′-LB
Relative light units were quantified for modified and unmodified promoters (FIG. 3), and promoter activity for the modified version determined as the percent of unmodified promoter activity (ProOp/Pro). […] In this assay, 35S:tetOp had about 25% of the activity as 35S promoter, EF1A2:tetOp had about 30% of the activity of EF1A2 promoter, MMV:tetOp had about 60% of the activity of MMV promoter, and dMMV:tetOp had about 50% of the activity of dMMV promoter.

Row | Molecule | ka [1] [M⁻¹ s⁻¹] | induction of repressor [2] | promoter activity as percent of unmodified promoter activity (ProOp/Pro) [3]
1 | B1 | 55000 | significant but incomplete induction | –
2 | B2 | 46000 | – | –
3 | B3 | 71000 | – | –
4 | B4 | 47000 | – | –
5 | B5 | – | – | about 60%
6 | B6 | – | – | about 25%
7 | B7 | – | – | about 50%
